The values below come from US20220273789A1.

Values joined by “and” are separate entries in the source; they are usually repeats but may differ in a detail not shown here. Equal entries are not always repeated. Where two headings read alike, the source gives them in different places.

Test [1] deals with human IgG (human). Kind of test: BLI (Octet), gEgI on Ni-NTA sensor, hIgG in solution.
In test [2] the target is human IgG (human). Kind of test: BLI Octet, construct on Ni-NTA sensor, hIgG in solution.
The target in test [3] is Human IgG isotype control (ThermoFischer Scientific, ref 12000C) (human). Kind of test: BLI, gEgI on Ni-NTA tips, hIgG in solution.
Test [4] deals with human IgG (human). Kind of test: BLI (Octet), gEgI on Ni-NTA sensor, hIgG in solution. The source holds these as a separate data set.

In the test with human IgG (human) [1], “HSV2-gE_H245S R320D_gI (from UniProt P89475 21-416; P06764 21-256) (receptor)” registered a Kd of 1740 nM and a Response of 0.121 nm. Further, in the test with human IgG (human) [2], the Kd is 1740 nM, the Response (nm) came out at 0.121 nm, the koff came out at 0.00468 s⁻¹ and the kon was found to be 2690 M⁻¹ s⁻¹.
In the test with human IgG (human) [1], “HSV2-gE_H245E_gI (from UniProt P89475 21-416; P06764 21-256) (receptor)” yielded a Kd of 11900 nM and a Response of 0.168 nm. Besides, in the test with human IgG (human) [2], the dissociation constant (Kd) was 11900 nM, the Response (nm) turned out to be 0.168 nm, the koff amounted to 0.00705 s⁻¹ and the kon stood at 595 M⁻¹ s⁻¹.
In the test with human IgG (human) [1], “HSV2-gE_A248T F322A_gI (from UniProt P89475 21-416; P06764 21-256) (receptor)” returned a Kd of 7010 nM and a Response of 0.167 nm. In addition, in the test with human IgG (human) [2], the Kd was 7010 nM, the Response (nm) came out at 0.167 nm, the off-rate (koff) is 0.00629 s⁻¹ and the kon was determined as 897 M⁻¹ s⁻¹.
Regarding “HSV2-gE_A248K V340W_gI (from UniProt P89475 21-416; P06764 21-256) (receptor)”, in the test with human IgG (human) [1], the Kd was 0.001 nM and the Response was determined as 0.0613 nm. Besides, in the test with human IgG (human) [2], the Kd is less than 0.001 nM, the Response (nm) worked out at 0.0613 nm, the koff is less than 1e-07 s⁻¹ and the kon amounted to 3780 M⁻¹ s⁻¹.
“HSV2-gE_A246W-R320D_gI (from UniProt P89475 21-416; P06764 21-256) (receptor)”: in the test with human IgG (human) [1], the Kd turned out to be 0.001 nM and the Response was 0.0712 nm.
In the test with human IgG (human) [1], “HSV2-gE_H245S R320T_gI (from UniProt P89475 21-416; P06764 21-256) (receptor)” returned a Kd of 718 nM and a Response of 0.205 nm. In addition, in the test with human IgG (human) [2], the Kd amounted to 718 nM, the Response (nm) was found to be 0.205 nm, the koff came out at 0.00503 s⁻¹ and the kon is 7000 M⁻¹ s⁻¹.
In the test with human IgG (human) [1], “HSV2-gE_A248T V340M_gI (from UniProt P89475 21-416; P06764 21-256) (receptor)” came in with a Kd of 0.001 nM and a Response of 0.108 nm. In the test with human IgG (human) [2], this substance came in with a Kd of less than 0.001 nM, a Response (nm) of 0.108 nm, a koff of less than 1e-07 s⁻¹ and a kon of 4440 M⁻¹ s⁻¹.
Consider “HSV2-gE_A246W R320T_gI (from UniProt P89475 21-416; P06764 21-256) (receptor)”, for which, in the test with human IgG (human) [1], the Kd turned out to be 0.001 nM and the Response was 0.0712 nm. Besides, in the test with human IgG (human) [2], the dissociation constant (Kd) is less than 0.001 nM, the Response (nm) came out at 0.0712 nm, the koff is less than 1e-07 s⁻¹ and the kon came to 1510 M⁻¹ s⁻¹.
On to “HSV2-gE_H245G R320G_gI (from UniProt P89475 21-416; P06764 21-256) (receptor)”, for which, in the test with human IgG (human) [1], the Kd was found to be 777 nM and the Response is 0.225 nm. In the test with human IgG (human) [2], the Kd was 777 nM, the Response (nm) is 0.225 nm, the koff stood at 0.00407 s⁻¹ and the kon was determined as 5240 M⁻¹ s⁻¹.
As for “HSV2-gE_H245A R320D_gI (from UniProt P89475 21-416; P06764 21-256) (receptor)”, in the test with human IgG (human) [1], the Kd was 6420 nM and the Response was found to be 0.116 nm. In the test with human IgG (human) [2], the Kd is 6420 nM, the Response (nm) was determined as 0.116 nm, the koff came to 0.00704 s⁻¹ and the kon turned out to be 1100 M⁻¹ s⁻¹.
For the substance “HSV2-gE_V340D_gI (from UniProt P89475 21-416; P06764 21-256) (receptor)”, in the test with human IgG (human) [1], the Kd amounted to 0.001 nM and the Response was determined as 0.115 nm. Further, in the test with human IgG (human) [2], the Kd is less than 0.001 nM, the Response (nm) worked out at 0.115 nm, the koff is less than 1e-07 s⁻¹ and the kon was determined as 5330 M⁻¹ s⁻¹.
As to “HSV2-gE_R320E_gI (from UniProt P89475 21-416; P06764 21-256) (receptor)”, in the test with human IgG (human) [1], the dissociation constant Kd was 4950 nM and the Response worked out at 0.223 nm. In the test with human IgG (human) [2], this substance displayed a Kd of 4950 nM, a Response (nm) of 0.223 nm, a koff of 0.00455 s⁻¹ and a kon of 919 M⁻¹ s⁻¹.
Turning to “HSV2-gE_H245S R320G_gI (from UniProt P89475 21-416; P06764 21-256) (receptor)”, in the test with human IgG (human) [1], the Kd was 745 nM and the Response is 0.196 nm. Also, in the test with human IgG (human) [2], the Kd was 745 nM, the Response (nm) was 0.196 nm, the koff was found to be 0.0039 s⁻¹ and the kon amounted to 5240 M⁻¹ s⁻¹.
In the test with human IgG (human) [1], “HSV2-gE_A248T V340W_gI (from UniProt P89475 21-416; P06764 21-256) (receptor)” gave an equilibrium dissociation constant (Kd) of 0.001 nM and a Response of 0.0605 nm. In the test with human IgG (human) [2], this substance came in with a Kd of less than 0.001 nM, a Response (nm) of 0.0605 nm, a koff of less than 1e-07 s⁻¹ and a kon of 3020 M⁻¹ s⁻¹.
In the test with human IgG (human) [1], “HSV2-gE_V340W_gI (from UniProt P89475 21-416; P06764 21-256) (receptor)” came in with a Kd of 0.001 nM and a Response of 0.0751 nm. In the test with human IgG (human) [2], this substance returned a Kd of less than 0.001 nM, a Response (nm) of 0.0751 nm, a koff of less than 1e-07 s⁻¹ and a kon of 3520 M⁻¹ s⁻¹.
“HSV2-gE_A248T_gI (from UniProt P89475 21-416; P06764 21-256) (receptor)”: in the test with human IgG (human) [1], the Kd was 12200 nM and the Response turned out to be 0.123 nm. In the test with human IgG (human) [2], this substance showed a Kd of 12200 nM, a Response (nm) of 0.123 nm, a koff of 0.00574 s⁻¹ and a kon of 470 M⁻¹ s⁻¹.
In test [3], “HSV40 (HSV2- gE_289_insert ADIGL_gI) (from UniProt P89475 21-416; P06764 21-256) (receptor)” displayed a Kd of 628 nM, a Relative Affinity (%) compared to control construct HSV34 of 18%, a koff of 0.00519 s⁻¹ and a kon of 8240 M⁻¹ s⁻¹.
In the same order, the values of “HSV50 (HSV2- gE_P319T_gI) (from UniProt P89475 21-416; P06764 21-256) (receptor)” are 8.91 nM, 1300%, 8.38e-05 s⁻¹ and 9460 M⁻¹ s⁻¹.
In test [3], “HSV51 (HSV2- gE_H245A-P319A_gI) (from UniProt P89475 21-416; P06764 21-256) (receptor)” gave a koff of less than 1e-07 s⁻¹ and a kon of 11000 M⁻¹ s⁻¹.
On to “HSV45 (HSV2- gE_P317R_gI) (from UniProt P89475 21-416; P06764 21-256) (receptor)”, for which, in the test with human IgG (human) [4], the Kd is 192 nM and 240 nM; the Response was 0.181 nm and 0.119 nm; the koff was 0.00137 s⁻¹ and 0.00156 s⁻¹; the kon was 7110 M⁻¹ s⁻¹ and 6520 M⁻¹ s⁻¹. In test [3], this substance gave a Kd of 1510 nM, a Relative Affinity (%) compared to control construct HSV34 of 8%, a koff of 0.00347 s⁻¹ and a kon of 2340 M⁻¹ s⁻¹.
As for “HSV43 (HSV2- gE_H245A_gI) (from UniProt P89475 21-416; P06764 21-256) (receptor)”, in test [3], the koff was less than 1e-07 s⁻¹ and the kon was determined as 9410 M⁻¹ s⁻¹.
In test [3], “HSV55 (HSV2- gE_H245A-P319T_gI) (from UniProt P89475 21-416; P06764 21-256) (receptor)” had a Kd of 201 nM, a Relative Affinity (%) compared to control construct HSV34 of 58%, a koff of 0.00105 s⁻¹ and a kon of 5330 M⁻¹ s⁻¹.
In the same order, the values of “HSV44 (HSV2- gE_H245K_gI) (from UniProt P89475 21-416; P06764 21-256) (receptor)” are 673 nM, 17%, 0.00628 s⁻¹ and 9550 M⁻¹ s⁻¹.
